Details in all cases: protein: recombinant; tags: N-terminal His-SUMO; label: 5' FAM
One series has as its target T1, ECT2-303 YTH mut (Arabidopsis thaliana, UniProt Q9LJE5 303-667, W464A;W521A;W526A).
T1 sequence: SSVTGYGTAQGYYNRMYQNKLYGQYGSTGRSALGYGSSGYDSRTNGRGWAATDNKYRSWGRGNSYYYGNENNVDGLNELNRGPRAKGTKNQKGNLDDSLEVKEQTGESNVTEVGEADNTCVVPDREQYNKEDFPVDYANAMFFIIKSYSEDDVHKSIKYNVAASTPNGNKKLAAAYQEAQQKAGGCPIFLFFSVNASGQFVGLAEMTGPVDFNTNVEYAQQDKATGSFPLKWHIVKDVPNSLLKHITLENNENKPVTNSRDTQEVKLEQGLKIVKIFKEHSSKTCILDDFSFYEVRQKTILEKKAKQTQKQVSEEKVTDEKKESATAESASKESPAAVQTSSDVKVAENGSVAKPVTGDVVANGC
The experiment in a line: EMSA; up to 500 nM; EMSA: 10 nM FAM-RNA; binding buffer 10 mM HEPES pH 8.0, 50 mM KCl, 1 mM EDTA, 0.05% Triton X-100, 5% glycerol, 10 µg/mL salmon DNA, 1 mM DTT, 40 U/mL RNasin; 20 min on ice; native 8% acrylamide TBE gel at 4°C.

In another series the target is T2, ECT2-108 YTH mut (Arabidopsis thaliana, UniProt Q9LJE5 108-667, W464A;W521A;W526A).
T2 sequence: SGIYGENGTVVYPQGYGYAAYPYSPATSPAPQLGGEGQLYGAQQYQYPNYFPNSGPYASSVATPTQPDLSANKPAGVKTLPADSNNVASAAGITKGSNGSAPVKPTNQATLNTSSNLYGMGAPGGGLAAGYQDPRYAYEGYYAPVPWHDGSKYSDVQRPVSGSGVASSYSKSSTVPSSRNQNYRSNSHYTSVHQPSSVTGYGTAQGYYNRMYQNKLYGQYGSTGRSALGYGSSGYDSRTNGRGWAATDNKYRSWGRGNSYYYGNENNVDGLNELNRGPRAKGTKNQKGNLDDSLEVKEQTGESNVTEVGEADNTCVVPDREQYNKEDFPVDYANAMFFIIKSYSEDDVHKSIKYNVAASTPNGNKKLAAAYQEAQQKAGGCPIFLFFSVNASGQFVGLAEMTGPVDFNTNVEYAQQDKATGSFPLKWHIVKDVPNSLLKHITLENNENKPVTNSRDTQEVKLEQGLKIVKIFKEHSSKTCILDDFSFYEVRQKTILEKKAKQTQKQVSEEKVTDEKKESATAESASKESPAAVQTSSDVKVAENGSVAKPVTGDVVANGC
The series is described as above.

Another series deals with T3, ECT2-Δα0 (Arabidopsis thaliana, UniProt Q9LJE5 1-667, del419-427).
T3 sequence: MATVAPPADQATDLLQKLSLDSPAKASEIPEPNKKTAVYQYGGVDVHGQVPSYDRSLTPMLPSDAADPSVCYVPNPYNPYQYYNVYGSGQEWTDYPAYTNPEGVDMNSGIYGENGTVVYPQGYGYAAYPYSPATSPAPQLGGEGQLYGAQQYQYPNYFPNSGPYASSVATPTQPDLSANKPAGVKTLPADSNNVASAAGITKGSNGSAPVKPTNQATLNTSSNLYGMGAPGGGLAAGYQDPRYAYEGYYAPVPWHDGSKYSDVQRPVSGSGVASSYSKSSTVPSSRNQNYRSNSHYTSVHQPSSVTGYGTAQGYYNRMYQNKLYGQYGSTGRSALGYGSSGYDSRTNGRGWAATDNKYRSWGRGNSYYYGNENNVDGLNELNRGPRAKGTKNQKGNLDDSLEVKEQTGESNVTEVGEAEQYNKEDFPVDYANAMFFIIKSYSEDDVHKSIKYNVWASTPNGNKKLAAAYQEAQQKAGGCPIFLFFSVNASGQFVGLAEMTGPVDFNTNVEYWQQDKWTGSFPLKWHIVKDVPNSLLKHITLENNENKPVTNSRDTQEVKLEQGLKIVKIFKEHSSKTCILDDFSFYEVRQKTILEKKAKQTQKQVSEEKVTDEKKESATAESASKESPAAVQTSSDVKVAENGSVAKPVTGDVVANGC
The experiment in a line: EMSA; close to full length, doublet kept; EMSA: 10 nM FAM-RNA; binding buffer 10 mM HEPES pH 8.0, 50 mM KCl, 1 mM EDTA, 0.05% Triton X-100, 5% glycerol, 10 µg/mL salmon DNA, 1 mM DTT, 40 U/mL RNasin; 20 min on ice; native 8% acrylamide TBE gel at 4°C. A general note: In EMSA bound probe runs differently from free probe, usually more slowly.

The target in a further series is T4, ECT2-Fl mut (YTH mut) (Arabidopsis thaliana, UniProt Q9LJE5 1-667, W464A;W521A;W526A).
T4 sequence: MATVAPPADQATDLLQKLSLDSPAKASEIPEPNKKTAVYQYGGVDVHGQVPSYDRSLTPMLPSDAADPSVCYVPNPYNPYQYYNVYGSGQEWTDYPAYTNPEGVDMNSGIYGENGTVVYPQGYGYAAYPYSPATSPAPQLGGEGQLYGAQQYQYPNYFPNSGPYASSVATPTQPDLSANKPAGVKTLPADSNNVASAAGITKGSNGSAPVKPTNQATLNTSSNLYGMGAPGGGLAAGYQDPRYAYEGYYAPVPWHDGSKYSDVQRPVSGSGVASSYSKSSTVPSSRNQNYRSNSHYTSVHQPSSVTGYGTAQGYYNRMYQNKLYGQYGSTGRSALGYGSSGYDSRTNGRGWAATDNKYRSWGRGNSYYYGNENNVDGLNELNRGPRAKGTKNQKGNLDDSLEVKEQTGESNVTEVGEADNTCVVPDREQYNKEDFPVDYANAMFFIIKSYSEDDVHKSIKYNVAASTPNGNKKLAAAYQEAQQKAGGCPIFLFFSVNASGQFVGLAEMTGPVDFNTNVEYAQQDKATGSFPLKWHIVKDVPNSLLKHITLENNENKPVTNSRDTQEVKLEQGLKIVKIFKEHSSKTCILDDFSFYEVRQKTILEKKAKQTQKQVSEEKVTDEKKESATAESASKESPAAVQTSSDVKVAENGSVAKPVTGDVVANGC
In words: EMSA; EMSA: 10 nM FAM-RNA; binding buffer 10 mM HEPES pH 8.0, 50 mM KCl, 1 mM EDTA, 0.05% Triton X-100, 5% glycerol, 10 µg/mL salmon DNA, 1 mM DTT, 40 U/mL RNasin; 20 min on ice; native 8% acrylamide TBE gel at 4°C.

Take AUGGGCCGUUCAUCUGCUAAAAGGACUGCUUUUGGGGCUUGU (ssRNA, m6A at position 25; thiol-protected 3' bases (*G*U)) [Probe I m6A]: the binding result with ECT2-303 YTH mut is recorded as “no binding”; with ECT2-108 YTH mut, “no binding”; in the series with ECT2-Δα0, “binds”; in the series with ECT2-Fl mut (YTH mut), “no binding”.

The record behind these values is PMC11404569, “ECT2 peptide sequences outside the YTH domain regulate its m6A-RNA binding”.
